From patent publication WO2021102332A1 (dated 2021) come the findings set out here.

The labels stand for the following.
T1: LRRC15 (leucine-rich repeat-containing protein 15) (human, UniProt Q8TF66 22-538, limits assumed)
T1 construct: The KD sentences say only 'LRRC15'; also called human LRRC15
T1 sequence (looked up): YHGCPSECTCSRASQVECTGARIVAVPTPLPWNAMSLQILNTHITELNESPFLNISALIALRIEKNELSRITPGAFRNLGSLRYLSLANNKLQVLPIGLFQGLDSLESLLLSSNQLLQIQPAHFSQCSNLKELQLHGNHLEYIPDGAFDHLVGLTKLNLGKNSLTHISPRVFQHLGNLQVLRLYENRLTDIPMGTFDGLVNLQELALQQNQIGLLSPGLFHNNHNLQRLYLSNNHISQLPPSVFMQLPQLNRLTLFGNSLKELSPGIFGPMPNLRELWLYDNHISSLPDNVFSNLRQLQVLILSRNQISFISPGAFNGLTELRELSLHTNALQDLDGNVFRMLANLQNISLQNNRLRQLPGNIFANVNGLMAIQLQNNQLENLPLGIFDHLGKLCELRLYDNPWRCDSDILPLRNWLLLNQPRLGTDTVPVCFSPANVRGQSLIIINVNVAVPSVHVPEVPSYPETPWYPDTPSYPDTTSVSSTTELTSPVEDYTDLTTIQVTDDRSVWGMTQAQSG

B1: hzJ66 VHv1 / hzJ66 VLv1 (antibody, V domains shown)
VH: QVQLVQSGAEVKKPGASVKVSCKASGYTFTNYWIGWVRQAPGQGLEWMGDIYPRSGYTNYNEKFKGRVTMTRDTSTSTVYMELSSLRSEDTAVYYCARSGGMYYFDYWGQGTTVTVSS
VL: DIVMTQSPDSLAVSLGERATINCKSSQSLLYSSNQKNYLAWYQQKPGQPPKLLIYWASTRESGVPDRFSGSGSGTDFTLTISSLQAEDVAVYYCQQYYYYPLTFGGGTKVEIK
notes: The KD sentence says only 'the parent humanized ... antibody'; also called parent humanized antibody (J66)
B2: mAb J66 (mouse) (antibody, V domains shown)
VH: QVQMKESGTELVRPGTSVKMSCKAAGYTFTNYWIGWVKQRPGHGPEWIGDIYPRSGYTNYNEKFKGKATLTADTSSSTAYMQLSSLTSEDSTIYFCARSGGMYYFDYWGQGTTLTVSS
VL: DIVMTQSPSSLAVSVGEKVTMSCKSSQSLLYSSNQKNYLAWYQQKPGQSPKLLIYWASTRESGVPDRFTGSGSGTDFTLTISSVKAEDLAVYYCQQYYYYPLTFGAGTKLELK
notes: From hybridomas of immunized mice; also called parent mouse antibody; Bin A2
B3: hzK713 VHv1 / hzK713 VLv1 (antibody, V domains shown)
VH: QVQLVQSGAEVKKPGASVKVSCKASGYTFTDYYMNWVRQAPGQRLEWMGRVSPSNGGTNYNQKFRGRVTITRDTSASTAYMELSSLRSEDTAVYYCARRGAGYSYYAMDYWGQGTTVTVSS
VL: DIVMTQSPDSLAVSLGERATINCRASESVDSYGNSLMYWYQQKPGQPPKLLIYLASNLESGVPDRFSGSGSGTDFTLTISSLQAEDVAVYYCQQNNEDPLTFGGGTKVEIK
notes: Expressed in CHO cells; also called parent antibody comprising hzK713 VLv1 in combination with heavy chain hzK713 VHv1
B4: hzK713 VHv2 (N55Q) / hzK713 VLv1 (antibody, V domains shown)
VH: B3 VH with N55Q
VL: B3 VL
notes: The KD sentence prints 'hzJ48 VHv2-v4', read as hzK713 VHv2-v4; also called printed in the KD sentence as hzJ48 VHv2 with hzK713 VLv1
B5: hzK713 VHv4 (G56A) / hzK713 VLv1 (antibody, V domains shown)
VH: B3 VH with G56A
VL: B3 VL
notes: The KD sentence prints 'hzJ48 VHv2-v4', read as hzK713 VHv2-v4; also called printed in the KD sentence as hzJ48 VHv4 with hzK713 VLv1
B6: hzK713 VHv3 (N55S) / hzK713 VLv1 (antibody, V domains shown)
VH: B3 VH with N55S
VL: B3 VL
notes: The KD sentence prints 'hzJ48 VHv2-v4', read as hzK713 VHv2-v4; also called printed in the KD sentence as hzJ48 VHv3 with hzK713 VLv1
B7: hzF36 VHv6.2 (D54Q) / hzF36 VLv1 (antibody, V domains shown)
VH: QVQLVQSGAEVKKPGASVKVSCKASGYTFTSFVIHWVRQAPGQGLEWMGYIYNQGTKYNERFRGRATLTSDKSTSTVYMELSSLRSEDTAVYYCARDYYFDYWGQGTLVTVSS
VL: DIVMTQSPDSLAVSLGERATINCRASESVDYYGISFMNWYQQKPGQPPKLLIYAASNQGSGVPDRFSGSGSGTDFTLTISSLQAEDVAVYYCQQSKEVPYTFGGGTKVEIK
B8: hzF36 VHv6 / hzF36 VLv1.1 (M4L) (antibody, V domains shown)
VH: B7 VH with Q54D
VL: B7 VL with M4L
notes: also called parent heavy chain hzF36 VHv6 in combination with light chain hzF36 VLv1.1
B9: hzF36 VHv6.4 (G55A) / hzF36 VLv1 (antibody, V domains shown)
VH: B7 VH with Q54D, G55A
VL: B7 VL
B10: hzJ66 VHv2 (M102L) / hzJ66 VLv1 (antibody, V domains shown)
VH: B1 VH with M102L
VL: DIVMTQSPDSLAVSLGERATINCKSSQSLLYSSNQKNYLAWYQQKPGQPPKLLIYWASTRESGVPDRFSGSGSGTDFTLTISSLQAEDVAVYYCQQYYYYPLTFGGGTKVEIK
notes: also called printed as heavy chain variant hzJ66 VLv2 with light chain hzJ66 VHv1
B11: hzJ66 VHv2 (M102L) / hzJ66 VLv1.1 (N22S) (antibody, V domains shown)
VH: B1 VH with M102L
VL: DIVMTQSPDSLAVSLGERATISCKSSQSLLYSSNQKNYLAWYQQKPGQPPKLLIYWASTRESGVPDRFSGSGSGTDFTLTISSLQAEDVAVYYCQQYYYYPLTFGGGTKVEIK
notes: also called printed as heavy chain variant hzJ66 VLv2 with light chain hzJ66 v1.1
B12: hzJ48 VHv3 / hzJ48 VLv1.1 (N92S) (antibody, V domains shown)
VH: QVQLVQSGAEVKKPGASVKVSCKASGYTFTDYYINWVRQAPGQGLEWMGWIYPGSGNTKYAQKFQGRVTMTRDTSTSTVYMELSSLRSEDTAVYYCARWGYGAYFTYWGQGTLVTVSS
VL: DIQMTQSPSSLSASVGDRVTITCKASQNVGINVAWYQQKPGKAPKLLIYSASYRSSGVPSRFSGSGSGTDFTLTISSLQPEDFATYYCQQYSSFPYTFGGGTKVEIK
notes: Human IgG1 or IgG1null and human kappa constant regions
B13: hzJ48 VHv3 / hzJ48 VLv1.2 (N92Q) (antibody, V domains shown)
VH: B12 VH
VL: B12 VL with S92Q
notes: as for B12
B14: hzJ48 VHv3 / hzJ48 VLv1.3 (S93A) (antibody, V domains shown)
VH: B12 VH
VL: B12 VL with S92N, S93A
notes: as for B12

Changes are numbered by the printed parent chain. In names and notes the source's numbering stands.

One experiment deals with T1, LRRC15 (leucine-rich repeat-containing …). Description: binding analysis (koff and/or KD); method not named.
For orientation: Kd means a measure of binding affinity in units of concentration. Read a low Kd as a tighter complex. Consider B1, for which the Kd is under 1 pM.

In the case of B2, the Kd was under 1 pM.

The next experiment shares this target. Nature of the experiment: binding analysis (koff and/or KD) of mAb expressed in CHO cells; method not named.
Molecule B3 came in with a Kd of 208 pM.

Turning to B4, the affinity, expressed as Kd, was 307 pM.

In turn, B5 gave a Kd of 334 pM.

As to B6, the dissociation constant (Kd) was found to be 212 pM.

Turning to B7, the affinity, expressed as Kd, was 340 pM.

For the molecule B8, the Kd was determined as 330 pM.

B9 had an equilibrium dissociation constant (Kd) of 320 pM.

For the molecule B10, the Kd was under 1 pM.

The molecule B11 yielded a Kd of under 1 pM.

In turn, B12 registered a Kd of 1700 pM.

Molecule B13 gave a Kd of 1600 pM.

Regarding B14, binding was characterised by a dissociation constant (Kd) of 600 pM.
